This passage reports pEC50 results from paper PMC7157769.

Experiment in all cases: ELISA; affinity-based ELISA; 5 ug/ml of each dockerin-containing enzyme immobilised on a MaxiSorp plate; CBM-Coh modules applied at 0.01 ng/ml to 100 ug/ml (Fig. S4: 1 or 10 ug/ml); detected with rabbit anti-CBD
For orientation: In an ELISA, binding on a coated surface is turned into a signal by an enzyme label.

Assay [1] deals with GH44A (GH44A-Doc), dockerin-containing glycoside hydrolase of C. saccharoperbutylacetonicum (Clostridium saccharoperbutylacetonicum N1-4 (HMT)).
The target in assay [2] is GH9B (GH9B-CBM3c-Doc), dockerin-containing glycoside hydrolase of C. saccharoperbutylacetonicum (Clostridium saccharoperbutylacetonicum N1-4 (HMT)).
In assay [3] the target is GH5B (GH5B-Doc), dockerin-containing glycoside hydrolase of C. saccharoperbutylacetonicum (Clostridium saccharoperbutylacetonicum N1-4 (HMT)).
Assay [4] addresses GH48A (GH48A-Doc), dockerin-containing glycoside hydrolase of C. saccharoperbutylacetonicum (Clostridium saccharoperbutylacetonicum N1-4 (HMT)).
For assay [5], the target named is GH74A (GH74A-Doc), dockerin-containing glycoside hydrolase of C. saccharoperbutylacetonicum (Clostridium saccharoperbutylacetonicum N1-4 (HMT)).

The pEC50 is the EC50 on a negative log10 scale, so that one unit is a factor of ten. For the substance “X2-Coh1 of the scaffoldin ScaA, fused to a CBM cassette (domain or fragment)”, the negative logarithm of the EC50 (pEC50) in assay [1] was determined as 4; in assay [2] it was 0.7; in assay [3], 2.5; in assay [4] it was 3.

Regarding “X2-Coh2 of the scaffoldin ScaA, fused to a CBM cassette (domain or fragment)”, the pEC50 in assay [5] amounted to 4; in assay [1], 4; in assay [2], 2.4.
